# In publication PMC9621694:
# Molecular target: purified trimeric native F protein of respiratory syncytial virus (respiratory syncytial virus) (UniProt P03420)
# Assay: SPR; normalized maximum SPR signal of purified scaffolds, point mutants and RSV-F at various concentrations of hRSV90 antibody, sigmoid fits
# purified trimeric native F protein of respiratory syncytial virus (respiratory syncytial virus), sequence (P03420 138-513): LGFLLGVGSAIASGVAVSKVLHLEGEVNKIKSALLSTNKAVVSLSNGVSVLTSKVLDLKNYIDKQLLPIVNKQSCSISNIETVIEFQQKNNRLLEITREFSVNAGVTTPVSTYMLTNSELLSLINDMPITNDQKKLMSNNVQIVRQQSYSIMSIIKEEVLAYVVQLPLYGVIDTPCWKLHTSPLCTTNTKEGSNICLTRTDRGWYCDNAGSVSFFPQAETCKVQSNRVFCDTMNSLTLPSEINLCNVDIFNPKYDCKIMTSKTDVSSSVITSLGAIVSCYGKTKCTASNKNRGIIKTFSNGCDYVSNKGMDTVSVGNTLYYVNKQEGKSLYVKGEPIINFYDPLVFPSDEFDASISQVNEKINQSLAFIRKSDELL
substance,measurement,value
neutralizing antibody hRSV90,Kd,0.023 µM
